Like-named read-outs stand apart in the source and are kept apart here.
Columns and labels:
Assay in all cases: Heat/Cool phage ELISA: phage-displayed VH, 80 C 10 min then 4 C 10 min, captured on coated protein A; signal as % of untreated sample
[1] = biological target: T1, protein A (UniProt P38507 37-477)
T1 construct: also called Protein A superantigen
Experimental: (§1) The aggregation-resistance of clones was analyzed by measuring retention of signal after heat incubation in a phage ELISA format (McCafferty et al., 1990; Jespers et al., 2004). Wells of a Nunc Maxisorp Immuno-plate were coated overnight with protein A at a concentration of about 5 μg/ml in phosphate-buffered saline (PBS). The plate was washed once with PBS and blocked with about 4% (w/v) milk powder diluted in PBS (MPBS). Single colonies were picked from agar plates and grown overnight in 2×TY medium (containing about 16 g/L tryptone; about 10 g/L yeast extract; about 5 g/L NaCl, pH 7.0) supplemented with about 15 μg/ml tetracycline shaking at about 30° C. Cells were removed by centrifugation and phages were biotinylated directly in the culture supernatant by adding biotin-PEO₄-N-hydroxysuccinimide (Pierce; about 50 μM final concentration). For heat selection, supernatant was first incubated at about 80° C. for about 10 min and then at about 4° C. for about 10 min. Supernatant was added to the blocked ELISA wells. After three washes with PBS, bound phage particles were detected using an Extravidin-HRP conjugate (Sigma) and 3,3′,5,5′-tetramethylbenzidine (TMB) substrate. Absorbance was calculated by subtracting measurements at 450 and 650 nm.
To identify residues in CDR2 that confer aggregation-resistance on a VH containing protein aspartic acid (D) was substituted for surface-exposed residues within the putative CDR2 of DP47 VH with aspartic acid (positions 50, 52, 52a, 53, 54).

[2] = biological target: T1, protein A; remark: listed apart in the source
Experimental: as §1
Single amino acid changes in the CDR1 region of the DP47 VH domain, and combinations thereof, were constructed and tested for aggregation-resistance, as detailed above (see the Materials and Methods section). […] Correctly folded VH were captured by protein A ELISA and the absorbance signal of the treated sample was calculated as a percentage of the untreated sample.

[3] = biological target: T1, protein A; remark: listed apart in the source
Experimental: as §1
To identify additional residues in CDR1 that confer aggregation-resistance on VH, surface-exposed residues of DP47 between positions 26 to 35 (numbering according to the Kabat numbering system) were substituted for aspartic acid (D) or glutamic acid (E). Framework residues at positions 39 and 40 were also substituted for aspartic acid (D) or glutamic acid (E). […] Correctly folded VH were captured by protein A ELISA and the absorbance signal of the treated sample was calculated as a percentage of the untreated sample.

Binder | Retained binding to protein A (%) [1] | Retained binding to protein A [2] | Retained binding to protein A (%) [3]
DP47 VH A50D (other, name in Kabat numbering) VH: QVQLLESGGGLVQPGGSLRLSCAASGFTFSSYAMSWVRQAPGKGLEWVSDISGSGGSTYYADSVKGRFTISRDNSKNTLYLQMNSLRAEDTAVYYCAKSYGAFDYWGQGTLVTVSS | 2.9% |  | 
DP47 VH G54D (other, name in Kabat numbering) VH: QVQLLESGGGLVQPGGSLRLSCAASGFTFSSYAMSWVRQAPGKGLEWVSAISGSDGSTYYADSVKGRFTISRDNSKNTLYLQMNSLRAEDTAVYYCAKSYGAFDYWGQGTLVTVSS | 1.3% |  | 
DP47 VH S52D (other, name in Kabat numbering) VH: QVQLLESGGGLVQPGGSLRLSCAASGFTFSSYAMSWVRQAPGKGLEWVSAIDGSGGSTYYADSVKGRFTISRDNSKNTLYLQMNSLRAEDTAVYYCAKSYGAFDYWGQGTLVTVSS | 3.9% |  | 
DP47 VH S31D (other, name in Kabat numbering) VH: QVQLLESGGGLVQPGGSLRLSCAASGFTFSDYAMSWVRQAPGKGLEWVSAISGSGGSTYYADSVKGRFTISRDNSKNTLYLQMNSLRAEDTAVYYCAKSYGAFDYWGQGTLVTVSS |  | 31% | 21.3%
DP47 VH Y32E (other, name in Kabat numbering) VH: QVQLLESGGGLVQPGGSLRLSCAASGFTFSSEAMSWVRQAPGKGLEWVSAISGSGGSTYYADSVKGRFTISRDNSKNTLYLQMNSLRAEDTAVYYCAKSYGAFDYWGQGTLVTVSS |  | 41% | 24.8%
DP47 VH S53D (other, name in Kabat numbering) VH: QVQLLESGGGLVQPGGSLRLSCAASGFTFSSYAMSWVRQAPGKGLEWVSAISGDGGSTYYADSVKGRFTISRDNSKNTLYLQMNSLRAEDTAVYYCAKSYGAFDYWGQGTLVTVSS | 3.8% |  | 
